Values quoted from earlier work in paper PMC9558312.

Tests used:
Assay in all cases: NMR
Asp119 = Asp119 (UniProt position 137, RCKGTDVQAWI)
Glu7 = Glu7 (UniProt position 25, VFGRCELAAAM)
Asp48 = Asp48 (UniProt position 66, TNRNTDGSTDY)
Asp66 = Asp66 (UniProt position 84, RWWCNDGRTPG)
Asp101 = Asp101 (UniProt position 119, KKIVSDGNGMN)
Glu35 = Glu35 (UniProt position 53, CAAKFESNFNT)
Asp87 = Asp87 (UniProt position 105, ALLSSDITASV)
Asp18 = Asp18 (UniProt position 36, KRHGLDNYRGY)
Asp52 = Asp52 (UniProt position 70, TDGSTDYGILQ)
Asp42 = Asp42 (UniProt position 63, KRGCADNCPKN)
His4 = His4 (UniProt position 25, YTLKCHNTQLP)
Glu17 = Glu17 (UniProt position 38, YKTCPEGKNLC)
Asp59 = Asp59 (UniProt position 80, VCCSTDKCN--)

Row | Substance | pKa (Asp119) | pKa (Glu7) | pKa (Asp48) | pKa (Asp66) | pKa (Asp101) | pKa (Glu35) | pKa (Asp87) | pKa (Asp18) | pKa (Asp52) | pKa (Asp42) | pKa (His4) | pKa (Glu17) | pKa (Asp59)
1 | Hen egg white lysozyme (HEWL, lysozyme C) (Gallus gallus) | 3.5 | 2.6 | 1.4 | 1.2 | 4.5 | 6.1 | 2.2 | 2.8 | 3.6 | – | – | – | –
2 | Cardiotoxin V (cytotoxin 5, CTX A5) (Naja naja atra (Naja atra, Taiwan cobra)) | – | – | – | – | – | – | – | – | – | 3.2 | 5.5 | 4 | <2
